{"source": "patent US11266968B2", "about": "“Mineralizing biosurfactant used for nucleating silica” (THE UNIVERSITY OF QUEENSLAND, priority 2013, dated 2022)", "key": {"[1]": {"assay": "Precipitation of silica from TEOS by biosurfactants", "conditions": "400 μM peptide, 25 mM HEPES pH 7.5 and 8.0, 80 mM TEOS, room temperature", "description": "To test whether biosurfactants SEQ ID NO: 153 and SEQ ID NO: 154 were able to precipitate silica, separate aqueous solutions of SEQ ID NO: 153 and SEQ ID NO: 154 (400 μM) in HEPES buffer (25 mM) at pH 7.5 and 8.0 were prepared and TEOS (80 mM) was added. A solution of each biosurfactant was retained without TEOS as a control. The mixtures were gently stirred at room temperature. A transparent gel-like precipitate formed within a few minutes in those compositions which had TEOS added whereas the control remained a solution. The precipitate was isolated and extensively washed with water and vacuum dried. The precipitate was analyzed by elemental analysis using EDS in conjunction with scanning electron microscopy (SEM, JEOL 6610). […] Excess oxygen, carbon and sulfur also found in the analysis were consistent with entrapped peptide."}, "[2]": {"assay": "Dynamic light scattering of nanoemulsions and nanocapsules", "format": "physicochemical", "conditions": "for Number-average diameter (dn) of oil droplets in nanoemulsion / Polydispersity index (PDI) of nanoemulsion: 400 μM peptide, 800 μM ZnCl2, 2% v/v Miglyol 812, HEPES pH 7.0, after sonication; for Increase in number-average diameter of nanoemulsion after dialysis: dialysis 20 hours against HEPES 25 mM, pH 7.5 or 8.0, 10 kDa membrane; for PDI of nanocapsules: 80 mM TEOS, 25 mM HEPES", "description": "(§1) The size distribution profile of the nanoemulsions and nanocapsules was determined by dynamic light scattering (DLS, Malvern Zetasizer Nano ZS) and the samples were diluted by a factor of 100 prior to the measurement. The morphology and shell thickness of the nanocapsules were examined by transmission electron microscopy (TEM, JEOL 1010, 100 kV accelerating voltage). Samples (2 μL) were taken directly from the reaction mixtures, deposited onto Formvar-coated copper grids (200 mesh), and left to air-dry prior to examination. Samples were also analyzed for high-resolution (HR) TEM (JEOL 2100, 200 kV accelerating voltage) equipped with an energy dispersive X-ray spectroscopy (EDS) detector. The formation of amorphous silica was verified by selected area electron diffraction (SAED) in HRTEM.\nSeparate solutions of SEQ ID NO: 153 (400 μM) and SEQ ID NO: 154 (400 μM) in HEPES buffer (25 mM, pH 7.0) in the presence of ZnCl2 (800 μM) were mixed with Miglyol® 812 (2% v/v) by sonication (Branson Sonifier 450, 10 W, 4×30 s burst and interspersed with cooling in an ice bath for 60 s). After sonication, the compositions were macroscopically identical and homogeneous with cloudy appearance.\nThe nanoemulsion compositions (1 mL) were dialyzed against HEPES buffer (500 mL, 25 mM, pH 7.5 or 8.0) using a 10 kDa cellulose membrane to adjust pH of each nanoemulsion and to remove residual peptide. After dialysis for 20 hours there was only a slight increase, approximately 5%, in the number-average diameter of nanoemulsions stabilized by either SEQ ID NO: 153 or SEQ ID NO: 154 and the PDIs remained similar. The nanoemulsions were stable to dialysis.\n(§2) Each of the dialyzed nanoemulsion compositions from Example 2 at pH 7.5 or 8.0 were divided into a number of separate glass vials. One composition of each peptide nanoemulsion at each pH was retained as a control. To the other compositions, three concentrations of TEOS were added to separate vials, 20 mM, 40 mM and 80 mM, and the compositions were gently stirred for 20 to 50 hours. The compositions were then analyzed by DLS and a size increase consistent with the formation of a thick layer surrounding the oil droplet core in TEOS-containing solutions was observed."}, "[3]": {"assay": "TEM measurement of nanocapsule silica shell thickness and diameter", "format": "physicochemical", "description": "as §1, §2\nThe shell thickness of at least 100 individual nanocapsules were measured by TEM (a dark ring around the perimeter of the bright core). The silica layer formed on SEQ ID NO: 153 and SEQ ID NO: 154 nanoemulsions at pH 7.5 was 22±5 nm and 12±2 nm thick respectively and at pH 8.0, 35±5 nm and 27±6 nm respectively.\nSEQ ID NO: 155 was used to facilitate formation and stabilization of nanoemulsions, and subsequently direct nucleation and growth of silica shell encasing the nanoemulsion template. A solution of SEQ ID NO: 155 (115 μM) in HEPES buffer (25 mM, pH 7.5) was mixed with Miglyol® 812 oil (10% v/v) by sonication at 10 W using Branson Sonifier 450 for 4×30 s burst and interspersed with cooling in an ice bath for 60 s. An aliquot of SEQ ID NO: 155 nanoemulsions (400 μL) was transferred to a glass vial and added with TEOS (80 mM). The mixture was then stirred at room temperature for 20 h to form silica shell surrounding the nanoemulsions."}, "[4]": {"conditions": "pH 7.5, 20 hours silicification"}, "[5]": {"conditions": "pH 8.0, 20 hours silicification"}, "[6]": {"conditions": "pH 7.5, at least 100 nanocapsules by TEM"}, "[7]": {"conditions": "pH 8.0, at least 100 nanocapsules by TEM"}, "[8]": {"conditions": "115 μM protein, 10% v/v Miglyol 812, pH 7.5, 80 mM TEOS, 20 h"}}}
{"molecule": "Ac-MKQLAHSVSRLEHA-RKKRKKRKKRKKGGGY-CONH2 (Ac-MKQLAHSVSRLEHARKKRKKRKKRKKGGGY-NH2) [SEQ ID NO: 154, custom synthesized mineralizing biosurfactant peptide, Mw 3632.4]", "values": [{"measurement": "Ability to precipitate/nucleate silica", "setting": "[1]", "result": "can nucleate silica"}, {"measurement": "Number-average diameter (dn) of oil droplets in nanoemulsion", "setting": "[2]", "result": "~40", "unit": "nm"}, {"measurement": "Polydispersity index (PDI) of nanoemulsion", "setting": "[2]", "result": 0.293}, {"measurement": "Increase in number-average diameter of nanoemulsion after dialysis", "setting": "[2]", "result": "approximately 5%"}, {"measurement": "PDI of nanocapsules", "setting": "[2]; [4]", "result": 0.146}, {"measurement": "PDI of nanocapsules", "setting": "[2]; [5]", "result": 0.233}, {"measurement": "Silica shell thickness", "setting": "[3]; 30 hours, 20 mM TEOS, 25 mM HEPES pH 7.5", "result": "5±1", "unit": "nm"}, {"measurement": "Silica shell thickness", "setting": "[3]; 30 hours, 40 mM TEOS, 25 mM HEPES pH 7.5", "result": "10±2", "unit": "nm"}, {"measurement": "Silica shell thickness", "setting": "[3]; 30 hours, 80 mM TEOS, 25 mM HEPES pH 7.5", "result": "16±3", "unit": "nm"}, {"measurement": "Silica shell thickness", "setting": "[3]; [6]", "result": "12±2", "unit": "nm"}, {"measurement": "Silica shell thickness", "setting": "[3]; [7]", "result": "27±6", "unit": "nm"}]}
{"molecule": "Ac-MKQLAHSVSRLEHA-SSKKSGSYGGSKGSKRRIL-NH2 (Ac-MKQLAHSVSRLEHASSKKSGSYGGSKGSKRRIL-NH2) [SEQ ID NO: 153, custom synthesized mineralizing biosurfactant peptide, Mw 3643.2]", "values": [{"measurement": "Ability to precipitate/nucleate silica", "setting": "[1]", "result": "can nucleate silica"}, {"measurement": "Number-average diameter (dn) of oil droplets in nanoemulsion", "setting": "[2]", "result": "~80", "unit": "nm"}, {"measurement": "Polydispersity index (PDI) of nanoemulsion", "setting": "[2]", "result": 0.329}, {"measurement": "Increase in number-average diameter of nanoemulsion after dialysis", "setting": "[2]", "result": "approximately 5%"}, {"measurement": "PDI of nanocapsules", "setting": "[2]; [4]", "result": 0.242}, {"measurement": "PDI of nanocapsules", "setting": "[2]; [5]", "result": 0.794}, {"measurement": "Silica shell thickness", "setting": "[3]; [6]", "result": "22±5", "unit": "nm"}, {"measurement": "Silica shell thickness", "setting": "[3]; [7]", "result": "35±5", "unit": "nm"}]}
{"molecule": "MDPS MKQLADS LHQLARQ VSRLEHA DPS MKQLADS LHQLARQ VSRLEHA DPS MKQLADS LHQLARQ VSRLEHA DPS MKQLADS LHQLARQ VSRLEHA EPS-RKKRKKRKKRKKGGGY (protein, recombinant mineralizing biosurfactant protein produced in Escherichia coli) MDPSMKQLADSLHQLARQVSRLEHADPSMKQLADSLHQLARQVSRLEHADPSMKQLADSLHQLARQVSRLEHADPSMKQLADSLHQLARQVSRLEHAEPSRKKRKKRKKRKKGGGY", "values": [{"measurement": "Outer diameter of nanocapsules", "setting": "[3]; [8]", "result": "249±29", "unit": "nm"}, {"measurement": "Silica shell thickness", "setting": "[3]; [8]", "result": "26±2", "unit": "nm"}]}
